The nature of the data set: protein stability index of a GFP-peptide fusion (GPS, HEK-293T) (PSI 1-6); higher = more stable. The note with it: c terminus: a fixed tail appended.

In the supplement of paper PMC10567573 one finds protein stability index data, which are given here for 36 sequences.

± gives the standard deviation.
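Note: 24-mer peptide tiles fused after GFP, lentivirally expressed, FACS-sorted into six equal bins by GFP/DsRed ratio, decoded by Illumina sequencing, PSI is the read-weighted mean bin number.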

On to LPGSDVSGRLMGSPPVPGPSAALT [FBXO28], for which the protein stability index reads like this: (treatment: DMSO) 4.42 ± 0.16; (treatment: MLN4924 1 uM, 8 h) 4.6 ± 0.33.
As to LQLQKGSDTEAQCEVMQEIVDQVL [INTS3], the protein stability index is, setting by setting: (treatment: DMSO) 3.63 ± 0.35; (treatment: MLN4924 1 uM, 8 h) 3.93 ± 0.19.
LQNEAQKRESFLKYKCLLQQLYYT [IQUB]: the protein stability index (treatment: DMSO) was 2.16 ± 0.43 and the protein stability index (treatment: MLN4924 1 uM, 8 h) amounted to 2.24 ± 0.21.
Consider LQTMLRQSAFLHLPLPEQIHKASA [INTS4], for which the protein stability index runs as follows: (treatment: DMSO) 2.56 ± 0.22; (treatment: MLN4924 1 uM, 8 h) 2.44 ± 0.15.
On to LRAEEIETRVTSGSMEALNLKQLR [PPFIA4], for which the protein stability index came out at 4.32 ± 0.28 (treatment: DMSO) and 4.58 ± 0.57 (treatment: MLN4924 1 uM, 8 h).
For the sequence LRCRKEFYQLVWSALPFITYLENK [POP5], the protein stability index is, setting by setting: (treatment: DMSO) 2.41 ± 0.9; (treatment: MLN4924 1 uM, 8 h) 2.07 ± 0.17.
On to LREAVPGILRARRGEGIQAPSFSS [SOAT2], for which the protein stability index was 3.4 ± 0.29 (treatment: DMSO) and 3.44 ± 0.35 (treatment: MLN4924 1 uM, 8 h).
In the case of LREKVEFLRSLRQMKQKVQSLYQE [NFE2L1], the protein stability index runs as follows: (treatment: DMSO) 2.09 ± 0.58; (treatment: MLN4924 1 uM, 8 h) 2.82 ± 0.52.
Take LRFLLDQVQLGLRCCGAASYQDWQ [TSPAN10]: the protein stability index by setting is: (treatment: DMSO) 3.05 ± 0.49; (treatment: MLN4924 1 uM, 8 h) 3.22 ± 0.49.
The sequence LRSRASRCRPRSLIDYKSYMDTKL [FAM189A2] came in with a protein stability index (treatment: DMSO) of 2.3 ± 0.28 and a protein stability index (treatment: MLN4924 1 uM, 8 h) of 2.19 ± 0.23.
For LSALKHAVLGLYLLVFLILVGIFI [SCARA5], in that order: 2.16 ± 0.63 and 2.08 ± 0.14.
Consider LSFSGSDVQNKLKESAQCVGDEFL [SNX8], for which the protein stability index is, setting by setting: (treatment: DMSO) 4.48 ± 0.2; (treatment: MLN4924 1 uM, 8 h) 4.49 ± 0.21.
Regarding LSGVQRVESVFFGGGTPSLASPHT [RSAD1], the protein stability index came out at 2.98 ± 0.27 (treatment: DMSO) and 3.07 ± 0.25 (treatment: MLN4924 1 uM, 8 h).
Take LSWYFLLCVNYFFYGETVADYFAT [CDS1]: the protein stability index is 3.11 ± 0.46 (treatment: DMSO) and 3.51 ± 0.53 (treatment: MLN4924 1 uM, 8 h).
For LSYNLYDLLRNTHFRGVSLNLTRK [DYRK1B], in that order: 2.28 ± 0.36 and 2.15 ± 0.09.
On to LTFGPDSRHCPQLPPPCAALWCSG [ADAMTS4], for which the protein stability index was 2.29 ± 0.36 (treatment: DMSO) and 2.46 ± 0.32 (treatment: MLN4924 1 uM, 8 h).
The corresponding values for LTTEKQNFLLFDMTTHPLTNNNIK [GOLPH3] are 2.98 ± 0.18 and 3.09 ± 0.17.
With LVCHVMMGNLVMFRKDSVLNILIQ [INTS3], the protein stability index reads like this: (treatment: DMSO) 3.25 ± 0.47; (treatment: MLN4924 1 uM, 8 h) 3.33 ± 0.51.
As to LVDFCNKPILLHQVEALAAAGVDH [GMPPB], the protein stability index amounted to 2.65 ± 0.31 (treatment: DMSO) and 2.95 ± 0.35 (treatment: MLN4924 1 uM, 8 h).
For LVLKIMSGTFAPISDRYSPELRQL [NEK8], in that order: 2.9 ± 0.6 and 2.69 ± 0.5.
Regarding LVMPLEEKLTKITRTGPSAWETKK [PCMTD2], the protein stability index runs as follows: (treatment: DMSO) 3.79 ± 0.21; (treatment: MLN4924 1 uM, 8 h) 3.75 ± 0.23.
On to LVRETDELRRNHCFQDFKEEKPQE [ELOA2], for which the protein stability index stood at 4.28 ± 0.24 (treatment: DMSO) and 4.41 ± 0.28 (treatment: MLN4924 1 uM, 8 h).
Regarding LWDTSGQGRFCTIFRSYSRGAQGI [RAB40C], the protein stability index by setting is: (treatment: DMSO) 2.39 ± 0.41; (treatment: MLN4924 1 uM, 8 h) 2.31 ± 0.37.
LWELCHLWLRPEVHTKEQILELLV [ZNF396] registered a protein stability index (treatment: DMSO) of 2.22 ± 0.36 and a protein stability index (treatment: MLN4924 1 uM, 8 h) of 2.31 ± 0.072.
Consider LWLRPETHTKEQILELVVLEQFVA [ZNF24], for which the protein stability index (treatment: DMSO) was 2.26 ± 0.61 and the protein stability index (treatment: MLN4924 1 uM, 8 h) stood at 2.35 ± 0.45.
On to LYFLFADAMQLNDKWQGLCWPMMD [CMTM3], for which the protein stability index reads like this: (treatment: DMSO) 3.07 ± 0.31; (treatment: MLN4924 1 uM, 8 h) 3.05 ± 0.47.
Consider LYHNVEGFTDRREARKYASNLLKA [DVL3], for which the protein stability index reads like this: (treatment: DMSO) 3.39 ± 0.071; (treatment: MLN4924 1 uM, 8 h) 3.49 ± 0.22.
For LYVSLHRYDHGTFFPMGDEGASSQ [HDAC6], in that order: 2.17 ± 0.51 and 2.31 ± 0.28.
In the case of MAAQRNRSKESKDCSGLVLLCLFF [PCDHGA10], the protein stability index is 2.29 ± 0.27 (treatment: DMSO) and 1.83 ± 0.32 (treatment: MLN4924 1 uM, 8 h).
Regarding MAGCRGSLCCCCRWCCCCGERETR [CLCN6], the protein stability index reads like this: (treatment: DMSO) 2.42 ± 0.28; (treatment: MLN4924 1 uM, 8 h) 2.98 ± 0.44.
Turning to MASDHREALLDRESENASLREKLR [LRRC45], the protein stability index came to 5.15 ± 0.093 (treatment: DMSO) and 4.95 ± 0.16 (treatment: MLN4924 1 uM, 8 h).
As to MDNNRNLDLDSIIDEVRTQYEEIA [KRT71], the protein stability index stood at 4.14 ± 0.26 (treatment: DMSO) and 4.13 ± 0.17 (treatment: MLN4924 1 uM, 8 h).
With MEEMQNKAVVFFVFYLWSAIEIFR [HACD3], the protein stability index runs as follows: (treatment: DMSO) 2.7; (treatment: MLN4924 1 uM, 8 h) 2.8 ± 0.63.
MENKKKDKDKSDDRMARPSGRSGH [CSNK1G3] returned a protein stability index (treatment: DMSO) of 5.42 ± 0.34 and a protein stability index (treatment: MLN4924 1 uM, 8 h) of 5.31 ± 0.44.
Consider MGGTTSTRRVTFEADENENITVVK [CHCHD3], for which the protein stability index is, setting by setting: (treatment: DMSO) 4.95 ± 0.27; (treatment: MLN4924 1 uM, 8 h) 5.11 ± 0.21.
With MIEDNKENKDHSLERGRASLIFSL [TPH1], the protein stability index by setting is: (treatment: DMSO) 3.25 ± 0.36; (treatment: MLN4924 1 uM, 8 h) 3.36 ± 0.18.
